In patent US20230242673A1 (published 2023):

Assays:
[1] = target: T1, original PCSK9 (PCSK9 (human) recombinant protein, Abnova Cat No: H00255738-P01) (UniProt Q8NBP7 31-692); assay: ELISA; 1st experiment
[2] = target: T1, original PCSK9 (PCSK9 (human) …); assay: ELISA; mean of two experiments, ±0.028
[3] = target: T1, original PCSK9 (PCSK9 (human) …); assay: ELISA; 2nd experiment
[4] = target: T1, original PCSK9 (PCSK9 (human) …); assay: ELISA; mean of two experiments, ±0.000
[5] = target: T1, original PCSK9 (PCSK9 (human) …); assay: ELISA; mean of two experiments, ±0.014

T1 sequence (Q8NBP7 other isoform, or with tags, fused parts or gaps): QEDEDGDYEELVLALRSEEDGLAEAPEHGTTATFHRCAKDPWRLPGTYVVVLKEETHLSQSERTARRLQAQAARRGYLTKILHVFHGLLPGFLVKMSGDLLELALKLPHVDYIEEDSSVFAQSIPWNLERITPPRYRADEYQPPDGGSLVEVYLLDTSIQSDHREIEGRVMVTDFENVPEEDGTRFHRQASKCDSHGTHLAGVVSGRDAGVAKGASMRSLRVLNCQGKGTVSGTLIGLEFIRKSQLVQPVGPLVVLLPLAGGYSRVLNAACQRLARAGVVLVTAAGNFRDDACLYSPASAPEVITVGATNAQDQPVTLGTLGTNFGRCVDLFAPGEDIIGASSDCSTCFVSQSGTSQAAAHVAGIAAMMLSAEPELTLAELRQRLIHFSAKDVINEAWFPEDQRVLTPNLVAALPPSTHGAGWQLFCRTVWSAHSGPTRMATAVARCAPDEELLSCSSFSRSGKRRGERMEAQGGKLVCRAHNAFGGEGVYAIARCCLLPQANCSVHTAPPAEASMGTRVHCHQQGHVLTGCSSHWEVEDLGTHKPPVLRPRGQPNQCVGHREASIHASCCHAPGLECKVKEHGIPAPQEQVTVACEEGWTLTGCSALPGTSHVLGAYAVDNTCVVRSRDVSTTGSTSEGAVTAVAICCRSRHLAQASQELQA

| EC50 [1] | EC50 [2] | EC50 [3] | EC50 [4] | EC50 [5] | Binder |
| --- | --- | --- | --- | --- | --- |
| 0.36 µg/mL | 0.38 µg/mL | 0.4 µg/mL |  |  | ch7D1 IgG (antibody, V domains shown) VH: EVKLVESGAELVRSGASVKLSCTASGFNIKDYYMHWVKQRPEQGLEWIGYIDPENGDTEYAPKFQGKATMTADTSSNTAYLQLSSLTSEDTAVYYCRSSPFTYWGQGTLVTVSA VL: not shown |
| 0.13 µg/mL |  | 0.13 µg/mL | 0.13 µg/mL |  | hz7D1.11 IgG (antibody, V domains shown) VH: QVQLVQSGAEVKKPGASVKVSCKASGFNIKDYYMHWVRQAPGQGLEWIGYIDPENGDTEYAPKFQGRATMTADTSISTAYMELSRLRSDDTAVYYCRSSPFTYWGQGTLVTVSS VL: DVVMTQSPLSLPVTLGQPASISCKSSQSLLDSDGKTYLNWLQQRPGQSPRRLIYLVSKLDSGVPDRFSGSGSGTDFTLKISRVEAEDVGVYYCWQGTHFPQTFGGGTKVEIKR |
| 0.19 µg/mL |  | 0.17 µg/mL |  | 0.18 µg/mL | hz7D1.22 IgG (antibody, V domains shown) VH: QVQLVQSGAEVKKPGASVKVSCKASGYTFKDYYMHWVRQAPGQGLEWMGYIDPENGDTEYAPKFQGRVTMTADTSISTAYMELSRLRSDDTAVYYCRSSPFTYWGQGTLVTVSS VL: DVVMTQSPLSLPVTLGQPASISCKSSQSLLDSDGKTYLNWFQQRPGQSPRRLIYLVSKLDSGVPDRFSGSGSGTDFTLKISRVEAEDVGVYYCWQGTHFPQTFGGGTKVEIKR |
